Data reported in patent US20050042227A1.

Target: LRP
Assay: cell-based or functional assay

- Kuptake ratio (fusion/enzyme), RAP-IDU against rhIDU, fibroblast (ratio (fusion/enzyme)): 25
- Uptake ratio (fusion/enzyme), RAP-IDU against rhIDU, fibroblast, 5 nM (ratio (fusion/enzyme)): 7
- Uptake ratio (fusion/enzyme), RAP-IDU against rhIDU, fibroblast, 50 nM (ratio (fusion/enzyme)): 27
- Uptake ratio (fusion/enzyme), RAP-IDU against rhIDU, fibroblast, saturation (ratio (fusion/enzyme)): 43
B1: RAP-IDU fusion (human RAP fused N-terminally to human alpha-L-iduronidase) (protein)
chain: SYSREKNQPKPSPKRESGEEFRMEKLNQLWEKAQRLHLPPVRLAELHADLKIQERDELAWKKLKLDGLDEDGEKEARLIRNLNVILAKYGLDGKKDARQVTSNSLSGTQEDGLDDPRLEKLWHKAKTSGKFSGEELDKLWREFLHHKEKVHEYNVLLETLSRTEEIHENVISPSDLSDIKGSVLHSRHTELKEKLRSINQGLDRLRRVSHQGYSTEAEFEEPRVIDLWDLAQSANLTDKELEAFREELKHFEAKIEKHNHYQKQLEIAHEKLRHAESVGDGERVSRSREKHALLEGRTKELGYTVKKHLQDLSGRISRARAEAETGEAPHLVHVDAARALWPLRRFWRSTGFCPPLPHSQADQYVLSWDQQLNLAYVGAVPHRGIKQVRTHWLLELVTTRGSTGRGLSYNFTHLDGYLDLLRENQLLPGFELMGSASGHFTDFEDKQQVFEWKDLVSSLARRYIGRYGLAHVSKWNFETWNEPDHHDFDNVSMTMQGFLNYYDACSEGLRAASPALRLGGPGDSFHTPPRSPLSWGLLRHCHDGTNFFTGEAGVRLDYISLHRKGARSSISILEQEKVVAQQIRQLFPKFADTPIYNDEADPLVGWSLPQPWRADVTYAAMVVKVIAQHQNLLLANTTSAFPYALLSNDNAFLSYHPHPFAQRTLTARFQVNNTRPPHVQLLRKPVLTAMGLLALLDEEQLWAEVSQAGTVLDSNHTVGVLASAHRPQGPADAWRAAVLIYASDDTRAHPNRSVAVTLRLRGVPPGPGLVYVTRYLDNGLCSPDGEWRRLGRPVFPTAEQFRRMRAAEDPVAAAPRPLPAGGRLTLRPALRLPSLLLVHVCARPEKPPGQVTRLRALPLTQGQLVLVWSDEHVGSKCLWTYEIQFSQDGKAYTPVSRKPSTFNLFVFSPDTGAVSGSYRVRALDYWARPGPFSDPVPYLEVPVPRGPPSPGNP
